# In patent US20140287419A1, “Compositions Having Dicamba Decarboxylase Activity and Methods of Use” (priority 2013, published 2014):
# B1: SEQ ID NO:34: amidohydrolase, Cupriavidus necator N-1 (protein)
# chain: MAQGKIGLEEHFAIPETLNDSAGFVPGDYWKELSRRLLDIQDDRLRQMDENGMEMMLLSLNAPAVQAVPDRKQACELAVRANDFLAEQVSRRPDRFQALAALPLQDPDFATVELTRCVNELGMRGALVNGFSQIDTPDNVVYYDAPQYASFWAAVEKLDVPFYLHPRNPIASWAQIYDGHPWLLGPTWAFGQETAVHALRLMASGLFDRHPALQIVLGHLGEGLPYSLWRIDNRNAWVKAPKTHPAKKTFRHYFQQNFHLTTSGNFHNQTLIDAILEIGADRILFSTDWPFENIDHAAKWFDSASISEADRTKIGRTNAMKLFKLVA
# modifications: Cupriavidus necator
# B2: SEQ ID NO:47: hypothetical protein SOD_m00560, Serratia odorifera 4Rx13 (protein, listed as Serratia odorifera)
# chain: MAKIICLEEHTLDKALVMASMPAALAQAPFLSDWGKTITDGNLPDRSRPQIEKNDLINVKGADIGRGRLDDMDEAGITMQVLSVGGFPHLISAAEGVDLNRAANDRLANAVNAHPDRFAAFATLPWAQPDAAEKELERAVKELGFKGALLNGRPSIHFLDHPDYDGLLARFNALGVPLYLHPGLPVRSVQQAYYSGFSDEVTARLSMFGWGWHHEAGIHLLRLILSGAFDKYPNLQVISGHWGEMLPFWLQRLDDSLPQAATGLRRTITQTFREQVYVTPSGMLTLPHFQFIYALLGAERILFSVDYPYQTLDGVKAFIQSLPVPEEAKEAIAFRNAERLFGLTS
# B3: SEQ ID NO:48: amidohydrolase, Amycolatopsis mediterranei U32 (protein, listed as Amycolatopsis mediterranei)
# chain: MASMKLYGLEEHFVTADVIEAWRRRDPGLAEPMMKWAVASDITPALLDVDGGRIAAMDDAGIDTTVLSLTTPGLQNLDAAEAVALQAPTNDLIAAAVRRHPGRFQGFATLATSAPAAAADELRRAVTELGLNGALVNANSRGRALDAPGFWDIYEAAEDLRAPVYLHPGVPVPAVTEAYYRGFGEPVNSMLATGAFGWHYDAGLTILRMIVAGVFDRFPGLQVILGHWGEVVLFYLDRVAAMDKLTALRRPIAEYFRSNIFITPGGISSHKYLRWSLETVGVERIMYASDYPFNTERAGSARRFLDTAPVDEAGRERIAYRNWEELIAGIRR
# B4: SEQ ID NO:30: o-pyrocatechuate decarboxylase, Enterobacter aerogenes KCTC 2190 (protein)
# chain: MARGKIALEEHVSTPENNRLWDSTGEANRNGSEYMQDVERRLLDRSIQLEEMAQRNIDHVILSLTSPGAQSILDKAKAVSFARDTNDFIVDNYVKPNPDKFSAFATLALQNPEAAAEELERAVKKLGMKGALINGYTNVKDSEHGLYLDDESMLVFWDKVNELNVPVYLHPREPLEGPARGIYTGYESLIGSAWGFAQETAVHAIRLMMSGLFDRYPNLNLVLGHLGEGLVHMLPRTQHRLYRQRFGCGLGKAEKPLMHYLQNNFIVTTSGHFNTHSLNNAIEVMGADRVMFSVDYPYEDIHQACDWFDPLEMDEGLKEKIAWGNASRVFNIK
# modifications: Enterobacter aerogenes
# B5: SEQ ID NO:28: 5-carboxyvanillate decarboxylase, Sphingomonas paucimobilis (protein, listed as Sphingomonas paucimobilis)
# chain: MARLIATEEAVTFQPVVDALRAHSRTDDASLDMILVRDVYGDEPARPAMIGRLSDVTGERLAEMDSNGVDMHLLSLTAPGVQMFDAETGTRLARIANDLMAQTVAANPTRFAGLGTFAPQDPASAAREIERVATQLRLNGLVINSHTNDLYYDDPFFHPVFEAIEASGLALYIHPRAPSKQIDRAFRDYGMNSAIWGYGIETSTNAVRMILSGLFDRFPRLKIVLGHMGEAIPFWLWRLDYMHGNATTFGGAPKLKLKPSEYFRRNFAITTSGVESHAALRYSIEVLGPENVMWAIDYPYQPMAPAVQFIRTAPIPEDVKAMVAGGNAARIFRIT
# B6: SEQ ID NO:46: decarboxylase, Rhodococcus opacus B4 (protein, listed as Rhodococcus opacus)
# chain: MARIITLEEHYLDPAIAAASAPLARELSPDFAAAYDPASGLSYTPSAQVLQDLGQRRIADMDTHGISMQVLSCLTTQQVPADVAPDLVRAANDTAAAAVRAHPDRFAAFAALPTTAPDAAATELARCIDDLGFVGTMINGRTDGEFLDAPRFDPILATAAARNVPIYLHPAVPPRATSDSNYAGLAPLVTARLQTSAWGWHQETAVHFLHLVLSGVLDRYPNLQFILGHWGEMIPFYLDRLDEALPQAVTNLDRTISDYVRENVYITPSGMFNQAQLQYCVETLGVDRILYSVDYPFIGNDGAVSFLDEANLPDEAKHQIAHQNTEKLLGL
# B7: SEQ ID NO:49: amidohydrolase 2, Streptomyces sp. SPB78 (protein, listed as Streptomyces sp.)
# chain: MAKIIALEEHFSDPAVAKAGAARARALSPGFAASYSPASGLPYSPSPEVLENLAEKRLADMDAGGITMQVLSGLGAQTVPADVAPALVAGSNDKAAAAVRAHPDRFAAFAALPTATPEAAVAELDRSVNELGFVGTLIMGRTEGEFLDAPRFEPILARAAALKVPVFLHPGVPPREITDSNYAAGLPTGIGTRLQTAAWGWHQETAVHFLHLVHSGVLDRYPDLQFILGHWGEMIPFYLDRVDEALPQRATGLDRSFHEYFRENVYLAPSGMWSQAQLRFCLETVPLERIVFAVDYPFIGNEGAVPFLEKAELPQADKRKIAHENAERLLGL
# B8: SEQ ID NO:35: amidohydrolase, Burkholderia sp. CCGE1001 (protein)
# chain: MAFKASRKIALEEHFAIDATVQDSAGFVPPSYWAELKRRLLDIHDRRIDEMDRNGVELMVLSLNAPTVQAVPNIKDAYDLSRRANDFLAEQIVKRPERFKGFAALPMQSPDLAARELERCVKELNFVGALVNGFSQVEESGTALYYDLPQYRQFWSVVQALDVPFYLHPRNPLPAHAPIYEGHPWLLGPTWAFGQETAVHALRLMGSGLFDEYPELKIILGHMGEGLPYSMWRIDNRNAWVETQPNYPAKKRIAEYFHKNFWLTTSGNFRTQTLIDAMLEIGSDRILFSTDWPFENVDHAAQWFDDAAISENDRIKIARTNAARLFKLEP
# modifications: Burkholderia sp
# B9: SEQ ID NO:33: amidohydrolase, Rhizobium leguminosarum bv. viciae 3841 (protein, listed as Rhizobium leguminosarum)
# chain: MAQGKIALEEHFAIPETLQDSAGFVPGDYWKELSARLLDIQEKRLRLMDAHGIEKMILSLNAPAVQAIPDRAKALEISRRANDFLAEQCVKNPNRFLGFAALPLQDPDAATQELQRCVTTMGFVGALVNGFSQEGDGTTPLYYDLPQYRSFWAEVEKLNVPFYLHPRNPLPQDSRIYAGHSWLMGPTWAFAQETAVHALRLMGSGLFDEHPALRIIVGHMGEGLPYMMWRIDNRNAWVKVEKSYPAKRPIADYFNENFYITTSGNFRTQSLIDAMLEIGADRILFSADWPFENIDHAANWFDSATISEADRLKIGRTNAVSLFKLDR
# B10: SEQ ID NO:43: amidohydrolase, Rhizobium leguminosarum bv. trifolii WSM2304 (protein, listed as Rhizobium leguminosarum)
# chain: MAQGKIALEEHFAIPETLQDSAGFVPGDYWTELSARLLDIQDKRLRLMDTHGIEKMILSLNAPAVQAIPDKAKAVEISRRANDFLAEQCVKNPNRFLGFAALPLQDPDAATQELQRCVTTMGFVGALVNGFSQEGDGTTPLYYDLPQYRPFWAEVEKLDVPFYLHPRNPLPQDSRIYAGHSWLMGPTWAFAQETAVHALRLMGSGLFDEHPALRIIVGHMGEGLPYMMWRIDNRNAWVKVEKSYPAKRPIADYFNENFYITTSGNFRTQSLIDAMLEIGADRILFSADWPFENVDHAANWFDSATISEADRLKIGRTNAVSLFKLDR
# B11: SEQ ID NO:31: reversible 2,6-dihydroxybenzoic acid decarboxylase, Agrobacterium sp. H13-3 (protein, listed as Agrobacterium sp.)
# chain: MAQGKVALEEHFAIPETLQDSAGFVPGDYWKELQHRLLDIQDTRLKLMDAHGIETMILSLNAPAVQAIPDKTKAIEIARRANDVLAEECAKRPDRFLAFAALPLQDPDAATEELQRCVNDLGFVGALVNGFSQEGDGQTPLYYDLPQYRPFWGEVEKLDVPFYLHPRNPLPQDSRIYDGHPWLLGPTWAFAQETAVHALRLMASGLFDEHPRLNIILGHMGEGLPYMMWRIDHRNAWVKLPPRYPAKRRFMDYFNENFHITTSGNFRTQTLIDAILEIGADRILFSTDWPFENIDHASDWFNATSIAEADRVKIGRTNARRLFKLDGA
# B12: SEQ ID NO:36: hypothetical protein AGRO_1970, Agrobacterium sp. ATCC 31749 (protein, listed as Agrobacterium sp.)
# chain: MAQGKVALEEHFAIPETLQDSAGFVPGDYWTELQHRLLDIQDTRLKLMDAHGIETMILSLNAPAVQAIPDKTKAIEIARRANDALAEECAKRPNRFLAFAALPLQDPDAATQELQRCVNDLGFVGALVNGFSQEGDGQIPLYYDLPQYRPFWGEVEKLDVPFYLHPRNPLPQDSRIYDGHPWLLGPTWAFAQETAVHALRLMASGLFDEHPRLNIILGHMGEGLPYMMWRIDHRNAWVKLPPRYPAKRRFVDYFNENFHITTSGNFRTQTLIDAILEIGADRILFSTDWPFENIDHASDWFHATSIAEADRVKIGRTNARRLFKLDGR
# B13: SEQ ID NO:44: amidohydrolase, Mycobacterium avium 104 (protein, listed as Mycobacterium avium)
# chain: MARIITVEEHFQHPEVSARVAELTGPAVEGLAEFGNAFSLDPDSTARLGGNRLAHMDQVGIDVQVVSHGNGSPGTLQHPEAVELCRRVNNDLAAQIAENPDRFRGFATLPLYDPAAAAEELRRCVGDLGFVGALIAGSYDGLFLDDERFDPILTAAEAVDFPIYVHPGLPEAPVSQRYYAGSWPASVHMMFSGPAFGWHAEAGIHIVRLILSGALDRHPTLKLLSGHWGELAAFYLERLDETLGLLPTGLERAPSDYYRQQVWITPSGMYNQNQLNFMTAELGAQRIIYSEDFPYVVRDNVSTFLEQAGLSEADTHAIAHTNAEALLRI
# Assay: 14C assay with IPTG-induced recombinant E. coli cells (14CO2 capture from [14C]-carboxyl-labeled dicamba)
# Conditions: E. coli cell assay, 108 sequences tested
row,Molecule,decarboxylation activity of dicamba
1,B1,showed decarboxylation activity of dicamba
2,B2,showed decarboxylation activity of dicamba
3,B3,showed decarboxylation activity of dicamba
4,B4,showed decarboxylation activity of dicamba
5,B5,showed decarboxylation activity of dicamba
6,B6,showed decarboxylation activity of dicamba
7,B7,showed decarboxylation activity of dicamba
8,B8,showed decarboxylation activity of dicamba
9,B9,showed decarboxylation activity of dicamba
10,B10,showed decarboxylation activity of dicamba
11,B11,showed decarboxylation activity of dicamba
12,B12,showed decarboxylation activity of dicamba
13,B13,showed decarboxylation activity of dicamba
